From patent publication US20190233495A1 (Sanofi, published 2019)
Non-standard residues stand in square brackets, D forms with d. αMeK = C[C@](N)(CCCCN)C(=O)O; Nle = CCCC[C@H](N)C(=O)O; Aib = CC(C)(N)C(=O)O

T1: RXFP1 receptor (UniProt Q9HBX9 1-757, limits assumed)
T1 sequence (looked up): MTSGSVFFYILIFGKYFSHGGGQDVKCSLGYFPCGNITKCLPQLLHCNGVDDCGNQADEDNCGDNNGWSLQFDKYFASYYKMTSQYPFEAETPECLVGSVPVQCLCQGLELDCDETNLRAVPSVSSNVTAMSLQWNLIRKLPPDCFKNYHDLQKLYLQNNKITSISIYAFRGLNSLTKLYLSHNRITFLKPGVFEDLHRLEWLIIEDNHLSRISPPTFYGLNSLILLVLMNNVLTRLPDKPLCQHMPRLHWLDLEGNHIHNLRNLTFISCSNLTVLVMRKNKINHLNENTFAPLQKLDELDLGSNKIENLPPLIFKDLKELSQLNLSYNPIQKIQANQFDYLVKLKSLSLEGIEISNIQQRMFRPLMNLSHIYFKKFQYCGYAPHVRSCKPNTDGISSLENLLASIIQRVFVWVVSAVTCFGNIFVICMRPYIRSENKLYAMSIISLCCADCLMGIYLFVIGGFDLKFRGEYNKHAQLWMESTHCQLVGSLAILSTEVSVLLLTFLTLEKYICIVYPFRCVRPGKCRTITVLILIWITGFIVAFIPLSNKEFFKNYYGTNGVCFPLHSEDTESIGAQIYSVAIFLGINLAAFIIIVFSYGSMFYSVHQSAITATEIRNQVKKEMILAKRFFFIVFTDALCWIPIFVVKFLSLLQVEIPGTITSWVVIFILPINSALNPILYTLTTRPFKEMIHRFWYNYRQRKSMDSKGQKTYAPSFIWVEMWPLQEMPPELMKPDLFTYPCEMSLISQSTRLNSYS


What follows are binders tested against T1, RXFP1 receptor (assay: cell-based or functional assay).

Binder | cAMP assay in OVCAR 5 cells EC50 | cAMP assay in OVCAR 5 cells Emax
Ac-LEGREKVRAQI[Aib][Aib]EG[Nle]STWS[Aib]RKK-NH2 (SMILES CCCC[C@H](NC(=O)CNC(=O)[C@H](CCC(=O)O)NC(=O)C(C)(C)NC(=O)C(C)(C)NC(=O)[C@@H](NC(=O)[C@H](CCC(N)=O)NC(=O)[C@H](C)NC(=O)[C@H](CCCNC(=N)N)NC(=O)[C@@H](NC(=O)[C@H](CCCCN)NC(=O)[C@H](CCC(=O)O)NC(=O)[C@H](CCCNC(=N)N)NC(=O)CNC(=O)[C@H](CCC(=O)O)NC(=O)[C@H](CC(C)C)NC(C)=O)C(C)C)[C@@H](C)CC)C(=O)N[C@@H](CO)C(=O)N[C@H](C(=O)N[C@@H](Cc1c[nH]c2ccccc12)C(=O)N[C@@H](CO)C(=O)NC(C)(C)C(=O)N[C@@H](CCCNC(=N)N)C(=O)N[C@@H](CCCCN)C(=O)N[C@@H](CCCCN)C(N)=O)[C@@H](C)O) [SEQ ID NO: 3] | 12 nM | 97%
Ac-LEGREKVRAK(Ac)I[Aib][Aib]EG[Nle]STWSK(Ac)RKKK(Ac)-NH2 (SMILES CCCC[C@H](NC(=O)CNC(=O)[C@H](CCC(=O)O)NC(=O)C(C)(C)NC(=O)C(C)(C)NC(=O)[C@@H](NC(=O)[C@H](CCCCNC(C)=O)NC(=O)[C@H](C)NC(=O)[C@H](CCCNC(=N)N)NC(=O)[C@@H](NC(=O)[C@H](CCCCN)NC(=O)[C@H](CCC(=O)O)NC(=O)[C@H](CCCNC(=N)N)NC(=O)CNC(=O)[C@H](CCC(=O)O)NC(=O)[C@H](CC(C)C)NC(C)=O)C(C)C)[C@@H](C)CC)C(=O)N[C@@H](CO)C(=O)N[C@H](C(=O)N[C@@H](Cc1c[nH]c2ccccc12)C(=O)N[C@@H](CO)C(=O)N[C@@H](CCCCNC(C)=O)C(=O)N[C@@H](CCCNC(=N)N)C(=O)N[C@@H](CCCCN)C(=O)N[C@@H](CCCCN)C(=O)N[C@@H](CCCCNC(C)=O)C(N)=O)[C@@H](C)O) [SEQ ID NO: 26] | 14.5 nM | 100%
Ac-LEGREKVRAK(Ac)I[Aib][Aib]EG[Nle]STWS[Aib]RKK-NH2 (SMILES CCCC[C@H](NC(=O)CNC(=O)[C@H](CCC(=O)O)NC(=O)C(C)(C)NC(=O)C(C)(C)NC(=O)[C@@H](NC(=O)[C@H](CCCCNC(C)=O)NC(=O)[C@H](C)NC(=O)[C@H](CCCNC(=N)N)NC(=O)[C@@H](NC(=O)[C@H](CCCCN)NC(=O)[C@H](CCC(=O)O)NC(=O)[C@H](CCCNC(=N)N)NC(=O)CNC(=O)[C@H](CCC(=O)O)NC(=O)[C@H](CC(C)C)NC(C)=O)C(C)C)[C@@H](C)CC)C(=O)N[C@@H](CO)C(=O)N[C@H](C(=O)N[C@@H](Cc1c[nH]c2ccccc12)C(=O)N[C@@H](CO)C(=O)NC(C)(C)C(=O)N[C@@H](CCCNC(=N)N)C(=O)N[C@@H](CCCCN)C(=O)N[C@@H](CCCCN)C(N)=O)[C@@H](C)O) [SEQ ID NO: 24] | 47.9 nM | 92%
Ac-LEGREKVRAQI[Aib][Aib]EG[Nle]STWT[Aib]RKK-NH2 (SMILES CCCC[C@H](NC(=O)CNC(=O)[C@H](CCC(=O)O)NC(=O)C(C)(C)NC(=O)C(C)(C)NC(=O)[C@@H](NC(=O)[C@H](CCC(N)=O)NC(=O)[C@H](C)NC(=O)[C@H](CCCNC(=N)N)NC(=O)[C@@H](NC(=O)[C@H](CCCCN)NC(=O)[C@H](CCC(=O)O)NC(=O)[C@H](CCCNC(=N)N)NC(=O)CNC(=O)[C@H](CCC(=O)O)NC(=O)[C@H](CC(C)C)NC(C)=O)C(C)C)[C@@H](C)CC)C(=O)N[C@@H](CO)C(=O)N[C@H](C(=O)N[C@@H](Cc1c[nH]c2ccccc12)C(=O)N[C@H](C(=O)NC(C)(C)C(=O)N[C@@H](CCCNC(=N)N)C(=O)N[C@@H](CCCCN)C(=O)N[C@@H](CCCCN)C(N)=O)[C@@H](C)O)[C@@H](C)O) [SEQ ID NO: 23] | 128 nM | 95%
Ac-LEGREKVRA[Aib]I[Aib][Aib]EG[Nle]STWSKRKK-NH2 (SMILES CCCC[C@H](NC(=O)CNC(=O)[C@H](CCC(=O)O)NC(=O)C(C)(C)NC(=O)C(C)(C)NC(=O)[C@@H](NC(=O)C(C)(C)NC(=O)[C@H](C)NC(=O)[C@H](CCCNC(=N)N)NC(=O)[C@@H](NC(=O)[C@H](CCCCN)NC(=O)[C@H](CCC(=O)O)NC(=O)[C@H](CCCNC(=N)N)NC(=O)CNC(=O)[C@H](CCC(=O)O)NC(=O)[C@H](CC(C)C)NC(C)=O)C(C)C)[C@@H](C)CC)C(=O)N[C@@H](CO)C(=O)N[C@H](C(=O)N[C@@H](Cc1c[nH]c2ccccc12)C(=O)N[C@@H](CO)C(=O)N[C@@H](CCCCN)C(=O)N[C@@H](CCCNC(=N)N)C(=O)N[C@@H](CCCCN)C(=O)N[C@@H](CCCCN)C(N)=O)[C@@H](C)O) [SEQ ID NO: 19] | 18.2 nM | 97%
Ac-LEGREKVRAQI[Aib][Aib]EG[Nle]STWS[Aib]RKK(Ac)-NH2 (SMILES CCCC[C@H](NC(=O)CNC(=O)[C@H](CCC(=O)O)NC(=O)C(C)(C)NC(=O)C(C)(C)NC(=O)[C@@H](NC(=O)[C@H](CCC(N)=O)NC(=O)[C@H](C)NC(=O)[C@H](CCCNC(=N)N)NC(=O)[C@@H](NC(=O)[C@H](CCCCN)NC(=O)[C@H](CCC(=O)O)NC(=O)[C@H](CCCNC(=N)N)NC(=O)CNC(=O)[C@H](CCC(=O)O)NC(=O)[C@H](CC(C)C)NC(C)=O)C(C)C)[C@@H](C)CC)C(=O)N[C@@H](CO)C(=O)N[C@H](C(=O)N[C@@H](Cc1c[nH]c2ccccc12)C(=O)N[C@@H](CO)C(=O)NC(C)(C)C(=O)N[C@@H](CCCNC(=N)N)C(=O)N[C@@H](CCCCN)C(=O)N[C@@H](CCCCNC(C)=O)C(N)=O)[C@@H](C)O) [SEQ ID NO: 21] | 32.8 nM | 96%

Second part, the binder after the results:

cAMP assay in OVCAR 5 cells EC50 | cAMP assay in OVCAR 5 cells Emax | Binder
57.1 nM | 102% | Ac-LEGREKVRAQI[Aib][Aib]EG[Nle]STWA[Aib]RKK-NH2 (SMILES CCCC[C@H](NC(=O)CNC(=O)[C@H](CCC(=O)O)NC(=O)C(C)(C)NC(=O)C(C)(C)NC(=O)[C@@H](NC(=O)[C@H](CCC(N)=O)NC(=O)[C@H](C)NC(=O)[C@H](CCCNC(=N)N)NC(=O)[C@@H](NC(=O)[C@H](CCCCN)NC(=O)[C@H](CCC(=O)O)NC(=O)[C@H](CCCNC(=N)N)NC(=O)CNC(=O)[C@H](CCC(=O)O)NC(=O)[C@H](CC(C)C)NC(C)=O)C(C)C)[C@@H](C)CC)C(=O)N[C@@H](CO)C(=O)N[C@H](C(=O)N[C@@H](Cc1c[nH]c2ccccc12)C(=O)N[C@@H](C)C(=O)NC(C)(C)C(=O)N[C@@H](CCCNC(=N)N)C(=O)N[C@@H](CCCCN)C(=O)N[C@@H](CCCCN)C(N)=O)[C@@H](C)O) [SEQ ID NO: 22]
4.2 nM | 100% | Ac-LEGREKVRAK(Ac)I[Aib][Aib]EG[Nle]STWSK(Ac)RKKK-NH2 (SMILES CCCC[C@H](NC(=O)CNC(=O)[C@H](CCC(=O)O)NC(=O)C(C)(C)NC(=O)C(C)(C)NC(=O)[C@@H](NC(=O)[C@H](CCCCNC(C)=O)NC(=O)[C@H](C)NC(=O)[C@H](CCCNC(=N)N)NC(=O)[C@@H](NC(=O)[C@H](CCCCN)NC(=O)[C@H](CCC(=O)O)NC(=O)[C@H](CCCNC(=N)N)NC(=O)CNC(=O)[C@H](CCC(=O)O)NC(=O)[C@H](CC(C)C)NC(C)=O)C(C)C)[C@@H](C)CC)C(=O)N[C@@H](CO)C(=O)N[C@H](C(=O)N[C@@H](Cc1c[nH]c2ccccc12)C(=O)N[C@@H](CO)C(=O)N[C@@H](CCCCNC(C)=O)C(=O)N[C@@H](CCCNC(=N)N)C(=O)N[C@@H](CCCCN)C(=O)N[C@@H](CCCCN)C(=O)N[C@@H](CCCCN)C(N)=O)[C@@H](C)O) [SEQ ID NO: 25]
1.8 nM | 97% | Ac-LEGREKVRA[Aib]I[Aib][Aib]EG[Nle]STWS[αMeK]RKK-NH2 (SMILES CCCC[C@H](NC(=O)CNC(=O)[C@H](CCC(=O)O)NC(=O)C(C)(C)NC(=O)C(C)(C)NC(=O)[C@@H](NC(=O)C(C)(C)NC(=O)[C@H](C)NC(=O)[C@H](CCCNC(=N)N)NC(=O)[C@@H](NC(=O)[C@H](CCCCN)NC(=O)[C@H](CCC(=O)O)NC(=O)[C@H](CCCNC(=N)N)NC(=O)CNC(=O)[C@H](CCC(=O)O)NC(=O)[C@H](CC(C)C)NC(C)=O)C(C)C)[C@@H](C)CC)C(=O)N[C@@H](CO)C(=O)N[C@H](C(=O)N[C@@H](Cc1c[nH]c2ccccc12)C(=O)N[C@@H](CO)C(=O)N[C@@](C)(CCCCN)C(=O)N[C@@H](CCCNC(=N)N)C(=O)N[C@@H](CCCCN)C(=O)N[C@@H](CCCCN)C(N)=O)[C@@H](C)O) [SEQ ID NO: 20]
